Values belong to the binder of their own block, whether it stands above or below them.
T1: Atg3 (yeast) (yeast (budding yeast), UniProt P40344 1-310)
T1 sequence: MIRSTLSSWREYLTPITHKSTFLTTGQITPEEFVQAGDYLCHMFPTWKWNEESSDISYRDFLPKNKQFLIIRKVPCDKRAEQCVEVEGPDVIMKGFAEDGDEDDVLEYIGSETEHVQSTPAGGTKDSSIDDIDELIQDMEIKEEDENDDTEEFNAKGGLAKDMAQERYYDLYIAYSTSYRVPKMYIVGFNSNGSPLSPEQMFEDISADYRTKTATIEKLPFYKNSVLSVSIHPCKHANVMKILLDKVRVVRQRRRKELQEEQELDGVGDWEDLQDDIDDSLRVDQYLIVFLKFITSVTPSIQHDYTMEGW

B1: Atg7 C-terminal domain (Atg7^CTD), yeast (domain or fragment, yeast (budding yeast))
chain: SSLLDPLKIADQSVDLNLKLMKWRILPDLNLDIIKNTKVLLLGAGTLGCYVSRALIAWGVRKITFVDNGTVSYSNPVRQALYNFEDCGKPKAELAAASLKRIFPLMDATGVKLSIPMIGHKLVNEEAQHKDFDRLRALIKEHDIIFLLVDSRESRWLPSLLSNIENKTVINAALGFDSYLVMRHGNRDEQSSKQLGCYFCHDVVAPTDSLTDRTLDQMCTVTRPGVAMMASSLAVELMTSLLQTKYSGSETTVLGDIPHQIRGFLHNFSILKLETPAYEHCPACSPKVIEAFTDLGWEFVKKALEHPLYLEEISGLSVIKQEVERLGNDVFEWEDDESDEIA
B2: Atg7 N-terminal domain (Atg7^NTD), yeast (domain or fragment, yeast (budding yeast), UniProt P38862 1-289, looked up)
chain: MSSERVLSYAPAFKSFLDTSFFQELSRLKLDVLKLDSTCQPLTVNLDLHNIPKSADQVPLFLTNRSFEKHNNKRTNEVPLQGSIFNFNVLDEFKNLDKQLFLHQRALECWEDGIKDINKCVSFVIISFADLKKYRFYYWLGVPCFQRPSSTVLHVRPEPSLKGLFSKCQKWFDVNYSKWVCILDADDEIVNYDKCIIRKTKVLAIRDTSTMENVPSALTKNFLSVLQYDVPDLIDFKLLIIRQNEGSFALNATFASIDPQSSSSNPDMKVSGWERNVQGKLAPRVVDLS
B3: Atg3^ΔFR (yeast Atg3 with the FR region, residues 86-159, deleted) (enzyme, yeast (budding yeast))
chain: MIRSTLSSWREYLTPITHKSTFLTTGQITPEEFVQAGDYLCHMFPTWKWNEESSDISYRDFLPKNKQFLIIRKVPCDKRAEQCVEAKDMAQERYYDLYIAYSTSYRVPKMYIVGFNSNGSPLSPEQMFEDISADYRTKTATIEKLPFYKNSVLSVSIHPCKHANVMKILLDKVRVVRQRRRKELQEEQELDGVGDWEDLQDDIDDSLRVDQYLIVFLKFITSVTPSIQHDYTMEGW
B4: full-length yeast Atg7 (enzyme, yeast (budding yeast), UniProt P38862 1-630, looked up)
chain: MSSERVLSYAPAFKSFLDTSFFQELSRLKLDVLKLDSTCQPLTVNLDLHNIPKSADQVPLFLTNRSFEKHNNKRTNEVPLQGSIFNFNVLDEFKNLDKQLFLHQRALECWEDGIKDINKCVSFVIISFADLKKYRFYYWLGVPCFQRPSSTVLHVRPEPSLKGLFSKCQKWFDVNYSKWVCILDADDEIVNYDKCIIRKTKVLAIRDTSTMENVPSALTKNFLSVLQYDVPDLIDFKLLIIRQNEGSFALNATFASIDPQSSSSNPDMKVSGWERNVQGKLAPRVVDLSSLLDPLKIADQSVDLNLKLMKWRILPDLNLDIIKNTKVLLLGAGTLGCYVSRALIAWGVRKITFVDNGTVSYSNPVRQALYNFEDCGKPKAELAAASLKRIFPLMDATGVKLSIPMIGHKLVNEEAQHKDFDRLRALIKEHDIIFLLVDSRESRWLPSLLSNIENKTVINAALGFDSYLVMRHGNRDEQSSKQLGCYFCHDVVAPTDSLTDRTLDQMCTVTRPGVAMMASSLAVELMTSLLQTKYSGSETTVLGDIPHQIRGFLHNFSILKLETPAYEHCPACSPKVIEAFTDLGWEFVKKALEHPLYLEEISGLSVIKQEVERLGNDVFEWEDDESDEIA

What was measured:
AUC = molecular target: the molecule itself; assay: AUC
full-length yeast Atg7 = molecular target: B4; assay: ITC
Atg3 (yeast) = molecular target: T1, Atg3 (yeast); assay: ITC

Binder: B1
stoichiometry N (AUC): 2

Kd (full-length yeast Atg7): 5.9 µM
Binder: SIDDIDELIQDMEIKEE (peptide, UniProt P40344 128-144, looked up) [synthetic peptide encompassing Atg3 residues 128-144 (Atg3^FRpep)]

Binder: B2
Kd (Atg3 (yeast)): 1.85 µM

Binder: B3
fold change of Kd against Atg3 (full-length yeast Atg7): > 40 fold

Binder: B4
stoichiometry N (AUC): 2
